According to PMC12093943, “The TetR-like regulator Sco4385 and Crp-like regulator Sco3571 modulate heterologous production of antibiotics in Streptomyces coelicolor M512” (Applied and Environmental Microbiology, 2025):

Target: the molecule itself
Experiment: SEC-MALS; Superose 6 increase 10/300 GL, room temperature, running buffer 50 mM Tris-HCl (pH 7.5), 250 mM NaCl, flow rate 0.4 mL/minute; MiniDAWN Treos

B1: TetR-family regulator Sco4385 (His-tagged) (natural protein, Streptomyces coelicolor M512, UniProt Q9K3V9 1-202, looked up)
chain: MNAADRTERVPKQDRSRATRQRLLEAAVACLAERGWAGSTVSVVAEHAGVSRGAAQHHFPTREDLFTAAVEYVAEERSIALRALFPEGAAADDRRAVVAALVDLYTGPLFRAALHLWVAASNEEQLRGRVTELEARVGRESHRIAVELLGADETRPGARETVQGLLDMARGLGLANLLTDDGARRERVVEQWARLLDAALAQ
notes: TetR-family regulator Sco4385 of Streptomyces coelicolor M512; Expressed from the vector pHis8 (plasmid pSW21); No tag cleavage is described; also called TFR Sco4385; TetR-type regulator Sco4385; source: E. coli BL21 DE3, purified (Ni-NTA chromatography, size exclusion chromatography)
  stoichiometry N: 2
